Biological target: PP2A-B55 phosphatase (B55, A and C subunits) of Xenopus egg extracts (Xenopus (endogenous in egg extracts)) (UniProt Q7ZX64)
Assay: enzyme inhibition kinetics (dephosphorylation of p-S113-Arpp19); kinase inactivated interphase extracts diluted 1/50 to 1/200; substrate p-S113-Arpp19 120 to 2000 nM; FAM122A 50, 125 and 250 nM or Thio-S71-Arpp19 1, 2 and 3 nM; quantitative western blot; global fit, competitive mode

Ki | Substance
28.1 nM | His-Xenopus FAM122A (wildtype) (natural protein)
0.22 nM | untagged thio-S71-phosphorylated Arpp19 (natural protein)

Reference: publication PMC10943098
